# Source: patent publication US20150191542A1 (INNATE PHARMA S A, published 2015)
# T1: MICA*004 expressed on C1R transfectant cells (human, UniProt Q29983 24-297, Glycosylated on cells; the letters do not carry this.)
# T1 construct: also called C1R-MICA*004; C1R-MICA*04
# T1 chain: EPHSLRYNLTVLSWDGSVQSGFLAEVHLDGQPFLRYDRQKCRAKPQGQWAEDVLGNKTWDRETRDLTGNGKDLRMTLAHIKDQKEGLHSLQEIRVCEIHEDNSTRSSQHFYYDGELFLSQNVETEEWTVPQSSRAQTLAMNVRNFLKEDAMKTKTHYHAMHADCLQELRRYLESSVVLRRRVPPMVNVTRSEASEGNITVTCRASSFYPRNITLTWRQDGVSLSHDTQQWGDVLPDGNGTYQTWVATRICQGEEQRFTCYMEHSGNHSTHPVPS
# T2: MICA*001 expressed on transfected cells (human)
# T2 construct: the cells carry the complete allele; also called C1R-MICA*001; C1R-MICA*01
# T2 chain: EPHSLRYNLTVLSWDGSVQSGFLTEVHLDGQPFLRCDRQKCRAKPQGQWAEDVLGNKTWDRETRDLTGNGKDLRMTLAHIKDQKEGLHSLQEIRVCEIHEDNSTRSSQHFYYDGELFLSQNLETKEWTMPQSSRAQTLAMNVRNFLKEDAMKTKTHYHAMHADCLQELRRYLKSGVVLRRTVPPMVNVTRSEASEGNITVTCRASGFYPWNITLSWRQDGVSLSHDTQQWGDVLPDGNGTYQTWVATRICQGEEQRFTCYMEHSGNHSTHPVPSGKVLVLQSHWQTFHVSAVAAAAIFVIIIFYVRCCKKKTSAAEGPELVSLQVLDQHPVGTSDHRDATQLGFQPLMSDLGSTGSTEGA
# T3: ULBP1-Fc protein (UniProt Q9BZM6 26-216, limits assumed)
# T3 construct: also called ULPB1; not shown: Fc part
# T3 sequence (looked up): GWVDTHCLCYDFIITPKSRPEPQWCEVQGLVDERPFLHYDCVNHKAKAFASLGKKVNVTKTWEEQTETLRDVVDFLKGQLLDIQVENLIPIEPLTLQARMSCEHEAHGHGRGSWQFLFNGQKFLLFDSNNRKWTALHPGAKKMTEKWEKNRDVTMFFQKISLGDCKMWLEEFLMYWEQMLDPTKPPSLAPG
# T4: ULBP2-Fc protein (UniProt Q9BZM5 26-217, limits assumed)
# T4 construct: also called ULPB2; not shown: Fc part
# T4 sequence (looked up): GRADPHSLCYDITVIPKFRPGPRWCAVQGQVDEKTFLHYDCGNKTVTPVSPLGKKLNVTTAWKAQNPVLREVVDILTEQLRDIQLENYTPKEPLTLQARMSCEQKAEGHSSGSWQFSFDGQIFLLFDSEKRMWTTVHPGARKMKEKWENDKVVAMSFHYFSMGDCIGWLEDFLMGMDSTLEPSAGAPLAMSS
# T5: recombinant human MICA extracellular domain recombinant-Fc protein (MICA*019 allele) (human, UniProt Q29983 24-297)
# T5 construct: Bought from R&D Systems; also called MICA*019-Fc; MICA-Fc; not shown: Fc part of the bought fusion protein (R&D Systems)
# T5 chain: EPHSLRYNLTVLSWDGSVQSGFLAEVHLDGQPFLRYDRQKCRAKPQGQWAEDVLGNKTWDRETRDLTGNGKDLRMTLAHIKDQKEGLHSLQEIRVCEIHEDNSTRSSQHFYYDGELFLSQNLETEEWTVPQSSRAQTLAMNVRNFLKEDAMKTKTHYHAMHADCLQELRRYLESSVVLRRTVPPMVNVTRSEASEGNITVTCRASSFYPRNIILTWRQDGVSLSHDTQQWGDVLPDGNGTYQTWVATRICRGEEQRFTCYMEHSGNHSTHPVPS
# Key:
# [1] = biological target: T1, MICA*004 expressed on C1R transfectant …; assay: flow cytometry, MFI against antibody concentration on C1R-MICA*04 cells
# Method: (§1) The binding of antibodies obtained from the first and second immunization series (including 9C10, 20C6 and 16A8) were tested for binding to MICA-expressing CR1 transfectant cells C1R-MICA*001, C1R-MICA*004, C1R-MICA*007 and C1R-MICA*008 (Pr. A. Steinle, Eberhard-Karls University Tuebingen, Germany) described in Salih et al. (2003) Blood 102(4): […]. Binding was analyzed by flow cytometry.
# (§2) Cells were harvested and stained in PBS 1×/BSA 0,2%/EDTA 2 mM buffer during 30 minutes at 4° C. using a dose-range of the anti-MICA mAbs. After two washes in staining buffer, cells were stained for 30 min at 4° C. with goat anti-mouse (H+L)-PE polyclonal antibodies (1/200). After two washes, stainings were acquired on a BD FACS Canto II and analyzed using the FlowJo software.
# [2] = biological target: T2, MICA*001 expressed on transfected cells; assay: flow cytometry on C1R-MICA*001 cells, 3-parameter logistic fit
# Method: as §1, §2
# Antibodies 9C10, 20C6 and 16A8 bound to each of the C1R-MICA*001, C1R-MICA*004, C1R-MICA*007 and C1R-MICA*008 cells (see FIGS. 3A, 3B and 3C for antibodies 9C10, 20C6 and 16A8 respectively). […] EC50 values are shown in Table C in μg/ml (calculated using a 3-parameter logistic fit).
# ULBP1-Fc protein = biological target: T3, ULBP1-Fc protein; assay: SPR Biacore T100, biotinylated antibody captured on CAP chip, Fc protein injected
# Method: (§3) The binding of 9C10, 20C6 and 16A8 to either recombinant human MICA extracellular domain recombinant protein monomers or dimers (MICA*019 allele-Fc protein or MICA*001-His protein) as well as other NKG2D ligands MICB and ULBP1-2 was analyzed by Surface Plasmon Resonance (SPR) using a Biacore T100 apparatus to obtain monovalent and bivalent affinity, respectively. Biotinylated anti-MICA antibodies were injected at a constant rate of 10 μl/min over the Sensor Chip CAP flow-cells comprising Biotin CAPture Reagent. MICA-Fc or MICA-His protein, MICB-Fc, ULBP1-Fc or ULBP2-Fc protein is then injected successively (range of concentrations between 0.01-100 nM), with regeneration between injections, and in increasing order over two flowcells simultaneously. Curves are fitted using Biacore T100 Evaluation software.
# (§4) (a) General Biacore T100 methods. SPR measurements were performed on a Biacore T100 apparatus (Biacore GE Healthcare) at 25° C. In all Biacore experiments HBS-EP+ buffer (Biacore GE Healthcare) or 10 mM sodium acetate pH 7.4, 150 mM NaCl, 0.05% P20 served as running buffer and sensorgrams were analyzed with Biaevaluation 4.1 and Biacore T100 Evaluation software. Recombinant human and mouse TLR3 were purchased from R&D Systems.
# ULBP2-Fc protein = biological target: T4, ULBP2-Fc protein; assay: as above
# Method: as §3, §4
# [3] = biological target: T5, recombinant human MICA extracellular …; assay: SPR Biacore T100, biotinylated antibody captured on CAP chip, MICA protein injected
# Method: as §3, §4
# [4] = biological target: T2, MICA*001 expressed on transfected cells; assay: flow cytometry, MFI against antibody concentration on C1R-MICA*01 cells
# Method: as §1, §2
EC50 (read off the curve) [1],EC50 [2],binding result (ULBP1-Fc protein),binding result (ULBP2-Fc protein),binding result [3],EC50 (read off the curve) [4],Binder
~0.2 mg/L,3.15 mg/L,no binding (tested: 0.01-100 nM),no binding (tested: 0.01-100 nM),,,"antibody 9C10 (antibody, V domains shown, Biotinylated when captured in the SPR assays (9C10-Biot); the sites are not given., Murine hybridoma antibody of IgG2b isotype as tested; also called 9C10-Biot) VH: QVQLQQPGAELVRPGTSVNLSCKASGYSFTRYWMNWVKQRPGQGLEWIGMIHPSDSETRLNQKFKDKATLTVDKSSSTAYMQLSSPTSEDSAVYYCGYGNFFYVMDYWGQGTSVTVSS VL: DILLTQSPAILSVSPGERVSFSCRASQSIGTSIHWYQQRTNGSPRLLIKFASESISGIPSRFSGSGSGTDFTLNINSVESEDIADYYCQQSNFWPFTFGSGTKLEVK"
,1.18 mg/L,,,binds,~0.3 mg/L,"antibody 16A8 (antibody, V domains shown, Murine hybridoma antibody of IgG2a isotype as tested; also called 16A8-Biot) VH: EVQLVESGGGLVKPGGSLKLSCAASGFTFSRYAMSWVRQTPEKRLEWVATIFSGGSYTYYPDSVKGRFTISRDNANNTLYLQMSSLKAEDTAMYFCARPNWERTFDYWGQGTTLTVSS VL: not shown"
